Assay results from patent publication US8574569B2, “Stabilized protease composition” (Trobio AB, priority 2005, dated 2013).

T1: trypsin (Bos taurus, UniProt P00760)
T1 construct: 100 μg/ml of trypsin (TPCK-treated, Sigma-Aldrich); purchased Sigma-Aldrich
T1 sequence (P00760 24-246): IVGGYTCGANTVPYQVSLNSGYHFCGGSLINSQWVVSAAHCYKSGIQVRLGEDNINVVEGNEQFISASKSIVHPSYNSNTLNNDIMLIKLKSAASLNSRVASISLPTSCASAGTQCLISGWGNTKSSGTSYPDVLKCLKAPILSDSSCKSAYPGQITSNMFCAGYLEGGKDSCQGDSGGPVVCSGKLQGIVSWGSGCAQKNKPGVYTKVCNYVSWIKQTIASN

B1: plasmin: plasmin, specific activity 3.2 units/mg, Sigma-Aldrich, solution without additives (protein, UniProt P00747 20-580; P00747 581-810, looked up)
Plasmin heavy chain A: EPLDDYVNTQGASLFSVTKKQLGAGSIEECAAKCEEDEEFTCRAFQYHSKEQQCVIMAENRKSSIIIRMRDVVLFEKKVYLSECKTGNGKNYRGTMSKTKNGITCQKWSSTSPHRPRFSPATHPSEGLEENYCRNPDNDPQGPWCYTTDPEKRYDYCDILECEEECMHCSGENYDGKISKTMSGLECQAWDSQSPHAHGYIPSKFPNKNLKKNYCRNPDRELRPWCFTTDPNKRWELCDIPRCTTPPPSSGPTYQCLKGTGENYRGNVAVTVSGHTCQHWSAQTPHTHNRTPENFPCKNLDENYCRNPDGKRAPWCHTTNSQVRWEYCKIPSCDSSPVSTEQLAPTAPPELTPVVQDCYHGDGQSYRGTSSTTTTGKKCQSWSSMTPHRHQKTPENYPNAGLTMNYCRNPDADKGPWCFTTDPSVRWEYCNLKKCSGTEASVVAPPPVVLLPDVETPSEEDCMFGNGKGYRGKRATTVTGTPCQDWAAQEPHRHSIFTPETNPRAGLEKNYCRNPDGDVGGPWCYTTNPRKLYDYCDVPQCAAPSFDCGKPQVEPKKCPGR
Plasmin light chain B: VVGGCVAHPHSWPWQVSLRTRFGMHFCGGTLISPEWVLTAAHCLEKSPRPSSYKVILGAHQEVNLEPHVQEIEVSRLFLEPTRKDIALLKLSSPAVITDKVIPACLPSPNYVVADRTECFITGWGETQGTFGAGLLKEAQLPVIENKVCNRYEFLNGRVQSTELCAGHLAGGTDSCQGDSGGPLVCFEKDKYILQGVTSWGLGCARPNKPGVYVRVSRFVTWIEGVMRNN
modifications: Plasmin
B2: trypsin: trypsin, TPCK-treated, Sigma-Aldrich, solution without additives (protein, UniProt P00760 24-246, looked up)
Serine protease 1: IVGGYTCGANTVPYQVSLNSGYHFCGGSLINSQWVVSAAHCYKSGIQVRLGEDNINVVEGNEQFISASKSIVHPSYNSNTLNNDIMLIKLKSAASLNSRVASISLPTSCASAGTQCLISGWGNTKSSGTSYPDVLKCLKAPILSDSSCKSAYPGQITSNMFCAGYLEGGKDSCQGDSGGPVVCSGKLQGIVSWGSGCAQKNKPGVYTKVCNYVSWIKQTIASN
modifications: TPCK-treated
notes: trypsin, TPCK-treated, Sigma-Aldrich, solution without additives

Assays:
plasmin = molecular target: T2, plasmin (Homo sapiens, UniProt P00747); assay: Stability of plasmin solutions (Chromozym TH chromogenic substrate, T 70%); type: physicochemical; conditions: 100 μg/ml plasmin in 10 mM HEPES, 0.13 M NaCl, pH 7.4, 37° C.
T2 construct: 100 μg/ml of plasmin (specific activity 3.2 units/mg, Sigma-Aldrich); purchased Sigma-Aldrich
Description: The stabilization of solutions of plasmin in accordance with the invention was tested. The activity of plasmin was determined using chromogenic peptide substrate Chromozym TH (Pentapharm, Switzerland) and measurement of absorbance change at 405 nm in a spectrophotometer. Solutions containing 100 μg/ml of plasmin (specific activity 3.2 units/mg, Sigma-Aldrich) in 10 mM HEPES and 0.13 M NaCl, pH 7.4, as well as stabilizers as indicated in Table 2 below were incubated at 37° C., and samples were taken out at various time intervals for activity determination.

trypsin = molecular target: T1, trypsin; assay: Stability of trypsin solutions (TAME substrate, T 70%); type: physicochemical; conditions: 100 μg/ml trypsin in 10 mM HEPES, 0.13 M NaCl, pH 7.4, 37° C.
Description: The stabilization of solutions of trypsin in accordance with the invention was tested. The activity of trypsin was determined using tosyl arginine methyl ester (TAME) as substrate and measuring the absorbance change at 247 nm in a spectrophotometer. Solutions containing 100 μg/ml of trypsin (TPCK-treated, Sigma-Aldrich) in 10 mM HEPES and 0.13 M NaCl, pH 7.4, as well as stabilizers as indicated in Table 3 below were incubated at 37° C., and samples were taken out at various time intervals for activity determination.

Molecule	T 70% (plasmin) [h]	T 70% (trypsin) [h]
B1	3	
B2		0.6
